This assay deals with T1, hACE2 purified protein (human (printed as hACE2), UniProt Q9BYF1 18-740).
T1 construct: also called CM5-hACE2 chip
Nature of the assay: SPR (Biacore T200), hACE2 amine-coupled to CM5 chip, peptide as analyte. A general note: SPR reads the build-up and loss of mass on a sensor chip optically.

T1 sequence (Q9BYF1 18-740 limits assumed): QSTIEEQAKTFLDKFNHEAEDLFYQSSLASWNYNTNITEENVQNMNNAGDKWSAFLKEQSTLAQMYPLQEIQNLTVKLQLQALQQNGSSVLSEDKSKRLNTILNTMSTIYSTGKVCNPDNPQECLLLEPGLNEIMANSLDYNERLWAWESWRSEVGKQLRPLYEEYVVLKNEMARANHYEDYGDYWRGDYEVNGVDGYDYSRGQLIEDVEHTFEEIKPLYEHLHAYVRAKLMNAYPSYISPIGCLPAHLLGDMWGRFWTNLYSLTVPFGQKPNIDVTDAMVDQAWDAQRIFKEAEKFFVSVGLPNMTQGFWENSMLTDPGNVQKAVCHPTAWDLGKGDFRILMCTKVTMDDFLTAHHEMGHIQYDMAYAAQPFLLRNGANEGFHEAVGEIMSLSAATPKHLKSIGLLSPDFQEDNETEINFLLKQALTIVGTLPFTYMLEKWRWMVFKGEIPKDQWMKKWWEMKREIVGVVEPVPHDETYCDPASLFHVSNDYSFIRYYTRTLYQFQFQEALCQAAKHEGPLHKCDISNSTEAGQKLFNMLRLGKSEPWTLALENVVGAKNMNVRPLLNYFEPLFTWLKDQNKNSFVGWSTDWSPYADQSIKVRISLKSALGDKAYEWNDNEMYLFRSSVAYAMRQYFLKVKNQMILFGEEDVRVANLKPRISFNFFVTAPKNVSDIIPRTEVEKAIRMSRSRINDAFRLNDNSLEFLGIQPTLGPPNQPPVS
Method: Specific Steps: [0031] a. The GE Biacore T200 is started, the Series S Sensor Chip CM5 is embedded into the GE Biacore T200, the PBS is degassed to obtain a degassed PBS, and the degassed PBS is used throughout the experiment; [0032] b. The NHS, the EDC, the ethanolamine, and the hACE2 (1 mg/mL) are placed on a feeding plate of the GE Biacore T200 according to volumes indicated by the GE Biacore T200 using Eppendorf (EP) tubes in sufficient quantities; [0033] c. […] A mobile solution (the degassed PBS) is closed, a command window is closed, and a report is served to obtain a CM5-hACE2 chip;
Specific Steps: [0038] a. Preparing different dilutions as samples for testing: the peptides in Table 1 to be tested at a concentration of 3 mmol/L (mM) are dissolved and sequentially diluted into different dilutions of 100 μmol/L (μM), 60 μM, 30 μM, 10 μM, 3 μM, 1 μM, 0.3 μM, and 0 using the PBS to obtain the samples. Each of the different dilutions is ensured to have a volume of no less than 400 μL and separately packaged on EP tubes. The samples are placed on a test plate of the GE Biacore T200, and the test plate is stuck in a test slot; [0039] b.

YSYIQK (also called YSYIQK; third peptide) [Peptide21] came in with a Kd of 36.8 µM.
Then YTYIQK (also called YTYIQK) [Peptide23], with 46.5 µM; and YKYKYL (also called YKYKYL; first peptide) [Peptide12], with 21.4 µM; and YRYRYL (also called YRYRYL; second peptide) [Peptide13], with 25.3 µM.

As a reminder, the Kd is the equilibrium constant for the complex coming apart. A lower Kd goes with tighter binding.

These data come from US20240010680A1 (XIAMEN UNIVERSITY, published 2024).
